For orientation: Kd means the concentration at which binding is half-saturated. A higher Kd goes with weaker binding. One may read the koff as the rate constant with which the complex falls apart. A higher koff goes with fast dissociation. For orientation: kon means a measure of how fast the partners come together. A lower kon goes with slower complex formation.

The target in this assay is T1, human proBDNF protein (prokaryotically expressed, Example 1) (human, UniProt P23560 19-247).
T1 construct: Vector-derived residues or tags are not described; also called human proBDNF antigen; recombinant human proBDNF
T1 sequence (looked up): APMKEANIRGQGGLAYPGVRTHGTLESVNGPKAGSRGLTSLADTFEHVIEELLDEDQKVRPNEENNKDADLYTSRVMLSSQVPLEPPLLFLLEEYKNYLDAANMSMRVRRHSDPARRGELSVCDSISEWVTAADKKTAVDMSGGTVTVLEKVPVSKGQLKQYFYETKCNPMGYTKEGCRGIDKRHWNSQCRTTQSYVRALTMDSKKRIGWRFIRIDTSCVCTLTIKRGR
Description: SPR, Biacore T200; human proBDNF coated directly on the chip (~500 RU); 2B11 injected at 10-160 nM, 25 C; 1:1 Langmuir model. As to the method:
Binding affinity of 2B11 against recombinant human proBDNF was measured by Surface Plasmon resonance (SPR) using Biacore T200™. 1×HBS-EP+ buffer was used as running buffer. Recombinant human proBDNF was directly coated on CMS biosensor chip to achieve approximately 500 response units (RU). For kinetics measurements, two-fold serial dilutions (10 nM to 160 nM) were injected at 25° C. with a flow rate of 30u1/min. Association rate (Kₐ) and dissociation rate (Kd) were calculated using a simple one to one Langmuir binding model (BIAcore Evaluation software version 3.2). The equilibrium dissociation constant (kD) was calculated as the ratio Kd/Kₐ. The binding affinity of 2B11 to human proBDNF is reported below: […]

B1: anti-proBDNF monoclonal antibody 2B11 (antibody, human IgG1, kappa, V domains shown)
VH: EVKVVESGGGLVQPGGSLRLSCATSGFTFTDYYMSWVRQPPGKALEWLGFIRNKANGYTTEYSSSVKGRFTISRDNSQSILYLQMNTLRAEDSATYYCAITMDYWGQGTSVTVSS
VL: DIQMTQSPASLSASVGETVTITCRASGNIHNYLAWYQKKQGKSPHLLVYNAQTLADGVPSRFSGSASGTQYSLKIDSLQPEDFGSYYCQHFWSTPFTFGSGTKLEIKR
notes: also called murine monoclonal antibody 2B11; antibody secreted from clone 2B11
The molecule B1 registered a Kd of 4.04 nM, a koff of 0.00116 s⁻¹ and a kon of 288000 M⁻¹ s⁻¹.
